The record followed here is patent publication US20090016988A1.

For assay [1], the target named is MPPT3 (proaerolysin with a uPA cleavage site in the activation sequence, an AFAI antibody fragment attached by a uPA-cleavable linker, and a His tag) (Aeromonas hydrophila). The experiment in a line: cell-based or functional assay.
For assay [2], the target named is MPPT2 (proaerolysin with a uPA cleavage site in the activation sequence, an N-terminal AFAI antibody fragment and a His tag) (Aeromonas hydrophila). The assay is described as follows: cell-based or functional assay.

Take “urokinase-type plasminogen activator (uPA) (enzyme)”: the Hemolytic activity after 60 minutes (horse red blood cells, after uPA digestion) (hemolytic titer (wells showing lysis)) in assay [1] came to 8; in assay [2], 4.5.
